Source: US20110172153A1 (GENERAL HOSPITAL, published 2011)
Square brackets hold non-standard residues; d marks the D form. Ends that are not written are not given here. hArg = N=C(N)NCCCC[C@H](N)C(=O)O; Aib = CC(C)(N)C(=O)O

T1: human parathyroid hormone receptor (PTHR) (human, UniProt Q03431 27-593)
T1 construct: Assayed in membranes of HKRK-B7 cells or of transiently transfected COS-7 cells, or on intact HKRK-B7/HKRK-B64/COS-7 cells; RG = co-transfected with negative-dominant Galpha-s; R0 = receptor alone plus GTPgammaS; also called hPTHR; human PTH receptor
T1 sequence: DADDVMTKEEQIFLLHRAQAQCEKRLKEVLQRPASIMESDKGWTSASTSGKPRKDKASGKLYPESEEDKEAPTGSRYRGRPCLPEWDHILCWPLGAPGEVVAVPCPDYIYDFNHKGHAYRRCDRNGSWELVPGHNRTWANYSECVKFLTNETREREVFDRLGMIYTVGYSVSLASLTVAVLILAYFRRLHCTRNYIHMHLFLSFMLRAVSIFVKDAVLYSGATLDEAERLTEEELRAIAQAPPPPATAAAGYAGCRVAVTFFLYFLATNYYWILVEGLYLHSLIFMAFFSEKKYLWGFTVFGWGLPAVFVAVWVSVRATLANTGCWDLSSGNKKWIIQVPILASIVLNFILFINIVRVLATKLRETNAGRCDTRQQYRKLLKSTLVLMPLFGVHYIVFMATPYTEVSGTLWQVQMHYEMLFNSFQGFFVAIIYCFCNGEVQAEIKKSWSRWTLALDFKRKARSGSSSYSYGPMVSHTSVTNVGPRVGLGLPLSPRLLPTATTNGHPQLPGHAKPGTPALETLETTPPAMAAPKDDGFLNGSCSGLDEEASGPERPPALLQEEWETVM

T2: rat parathyroid hormone receptor (PTHR) (rat, UniProt P25961 27-591)
T2 sequence: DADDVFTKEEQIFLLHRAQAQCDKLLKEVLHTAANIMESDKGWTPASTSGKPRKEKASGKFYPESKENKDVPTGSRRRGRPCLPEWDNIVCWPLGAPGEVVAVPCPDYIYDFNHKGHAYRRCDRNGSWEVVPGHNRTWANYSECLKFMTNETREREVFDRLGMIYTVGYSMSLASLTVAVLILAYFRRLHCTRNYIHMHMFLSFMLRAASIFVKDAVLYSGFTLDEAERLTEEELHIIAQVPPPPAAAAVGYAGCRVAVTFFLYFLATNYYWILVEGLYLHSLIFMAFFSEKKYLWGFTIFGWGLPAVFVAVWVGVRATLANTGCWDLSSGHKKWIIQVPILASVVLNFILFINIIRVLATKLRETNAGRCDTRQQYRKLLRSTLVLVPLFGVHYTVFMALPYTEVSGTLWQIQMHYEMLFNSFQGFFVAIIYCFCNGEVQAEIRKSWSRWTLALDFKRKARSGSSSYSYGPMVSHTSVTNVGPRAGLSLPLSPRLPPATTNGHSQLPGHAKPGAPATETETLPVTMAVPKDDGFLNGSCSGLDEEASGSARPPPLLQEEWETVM

B1: E18,K22,A26-PTHrP(1-28)NH (peptide)
peptide: AVSEHQLLHDKGKSIQDERRRKFLHALI-NH2
B2: A18,26,N22-PTHrP(1-28)NH (peptide)
peptide: AVSEHQLLHDKGKSIQDARRRNFLHALI-NH2
B3: E18,N22,A26-PTHrP(1-28)NH (peptide)
peptide: AVSEHQLLHDKGKSIQDERRRNFLHALI-NH2
B4: E18,L22,K26-PTHrP(1-28)NH (peptide)
peptide: AVSEHQLLHDKGKSIQDERRRLFLHKLI-NH2
B5: E18,W22,A26-PTHrP(1-28)NH (peptide)
peptide: AVSEHQLLHDKGKSIQDERRRWFLHALI-NH2
B6: A18,26,S22-PTHrP(1-28)NH (peptide)
peptide: AVSEHQLLHDKGKSIQDARRRSFLHALI-NH2
B7: A18,N22,K26-PTHrP(1-28)NH (peptide)
peptide: AVSEHQLLHDKGKSIQDARRRNFLHKLI-NH2
B8: A18,W22,K26-PTHrP(1-28)NH (peptide)
peptide: AVSEHQLLHDKGKSIQDARRRWFLHKLI-NH2
B9: E18,S22,A26-PTHrP(1-28)NH (peptide)
peptide: AVSEHQLLHDKGKSIQDERRRSFLHALI-NH2
B10: E18,L22,A26-PTHrP(1-28)NH (peptide)
peptide: AVSEHQLLHDKGKSIQDERRRLFLHALI-NH2
B11: A18,L22,K26-PTHrP(1-28)NH (peptide)
peptide: AVSEHQLLHDKGKSIQDARRRLFLHKLI-NH2
B12: hPTH(1-28)NH2 (peptide)
peptide: SVSEIQLMHNLGKHLNSMERVEWLRKKL-NH2
B13: [Ala^1,12,Aib^3,Gln^10,homoarginine^11,Trp^14,Arg^19]human(h)PTH(1-28)NH2 (peptide)
peptide: AV[Aib]EIQLMHQ[hArg]AKWLNSMRRVEWLRKKL-NH2
modifications: N-terminus assumed
SMILES: CC[C@H](C)[C@H](NC(=O)[C@H](CCC(=O)O)NC(=O)C(C)(C)NC(=O)[C@@H](NC(=O)[C@H](C)N)C(C)C)C(=O)N[C@@H](CCC(N)=O)C(=O)N[C@@H](CC(C)C)C(=O)N[C@@H](CCSC)C(=O)N[C@@H](Cc1c[nH]cn1)C(=O)N[C@@H](CCC(N)=O)C(=O)N[C@@H](CCCCNC(=N)N)C(=O)N[C@@H](C)C(=O)N[C@@H](CCCCN)C(=O)N[C@@H](Cc1c[nH]c2ccccc12)C(=O)N[C@@H](CC(C)C)C(=O)N[C@@H](CC(N)=O)C(=O)N[C@@H](CO)C(=O)N[C@@H](CCSC)C(=O)N[C@@H](CCCNC(=N)N)C(=O)N[C@@H](CCCNC(=N)N)C(=O)N[C@H](C(=O)N[C@@H](CCC(=O)O)C(=O)N[C@@H](Cc1c[nH]c2ccccc12)C(=O)N[C@@H](CC(C)C)C(=O)N[C@@H](CCCNC(=N)N)C(=O)N[C@@H](CCCCN)C(=O)N[C@@H](CCCCN)C(=O)N[C@@H](CC(C)C)C(N)=O)C(C)C
B14: Trp^1-M-PTH(1-28) (peptide)
peptide: WV[Aib]EIQLMHQ[hArg]AKWLNSMRRVEWLRKKL

Each binder was assayed against T1, human parathyroid hormone receptor … (assay: screen, binding to human PIR R0 relative to parent PTHrP(1-28)NH; footnote not given).

Row | human PIR R0 (% parent) | Binder
1 | 106 % parent | B1
2 | 136 % parent | B2
3 | 53.7 % parent | B3
4 | 64.4 % parent | B4
5 | 18.8 % parent | B5
6 | 133 % parent | B6
7 | 139 % parent | B7
8 | 136 % parent | B8
9 | 31.9 % parent | B9
10 | 52.5 % parent | B10
11 | 160 % parent | B11

Each binder was assayed against T1, human parathyroid hormone receptor … (assay: screen, binding to human PIR RG relative to parent PTHrP(1-28)NH; footnote not given).

Row | human PIR RG (% parent) | Binder
12 | 192 % parent | B1
13 | 161 % parent | B2
14 | 140 % parent | B3
15 | 152 % parent | B4
16 | 116 % parent | B5
17 | 148 % parent | B6
18 | 172 % parent | B7
19 | 115 % parent | B8
20 | 132 % parent | B9
21 | 125 % parent | B10
22 | 177 % parent | B11

These binders were tested against T2, rat parathyroid hormone receptor (PTHR) (assay: cell-based or functional assay).

Row | acute cAMP in ROS17/2.8 cells, EC50 (FIG. 21A) | cAMP in ROS17/2.8 cells, EC50 | IP3 formation, fold less potent than M-PTH(1-28) | Binder
23 | 7.6 nM | 7.39 nM |  | B12
24 | 0.33 nM | 0.37 nM |  | B13
25 |  |  | 100 fold | B14
